Assay [1] deals with T1, Homo sapiens factor Bb protein (human, UniProt P00751 260-764).
T1 construct: Bought from CompTech (A155); also called complement factor Bb; human factor Bb
As to the kind of experiment: ELISA, factor Bb coated at 2.5 µg/mL, biotinylated antibody titrated, streptavidin-HRP, OD450 background subtracted. As to the method: (§1) Briefly, complement and plasma proteins were coated onto ELISA plates at 2. 5 μg/mL in PBS overnight at 4° C. Plates were then blocked with Casein for 1 hour at room temperature and washed four times with 1× DPBS/0.05% Tween-20 followed by a single wash with 1× DPBS. Serial dilutions starting at 50 μg/ml of biotinylated chimeric parent or VH6/VK7-IgG4v2 were added to the plate in PBS/0.1%casein/0.1%Tween-20 and incubated for 2 hours at room temperature. Plates were washed as described and a 1:10,000 dilution of streptavidin-HRP (Southern Biotech 7100-05) in PBS/0.1% casein/0.1% Tween-20 was added to the plate and incubated for 30 minutes at room temperature. Plates were again washed and Ultra TMP ELISA (Thermo 34028) was added to the plate for 1 minute, followed by stop solution). OD 450 nm was read in a plate reader and background at 620 nm was subtracted. Both the chimeric parent (FIG. 8A) and the humanized variant (FIG. 8B) show complete specificity for factor Bb.
(In general: In an ELISA, binding on a coated surface is turned into a signal by an enzyme label.)

The target in assay [2] is T2, C1r (Comptech A102) (UniProt P00736 18-705).
T2 sequence (looked up): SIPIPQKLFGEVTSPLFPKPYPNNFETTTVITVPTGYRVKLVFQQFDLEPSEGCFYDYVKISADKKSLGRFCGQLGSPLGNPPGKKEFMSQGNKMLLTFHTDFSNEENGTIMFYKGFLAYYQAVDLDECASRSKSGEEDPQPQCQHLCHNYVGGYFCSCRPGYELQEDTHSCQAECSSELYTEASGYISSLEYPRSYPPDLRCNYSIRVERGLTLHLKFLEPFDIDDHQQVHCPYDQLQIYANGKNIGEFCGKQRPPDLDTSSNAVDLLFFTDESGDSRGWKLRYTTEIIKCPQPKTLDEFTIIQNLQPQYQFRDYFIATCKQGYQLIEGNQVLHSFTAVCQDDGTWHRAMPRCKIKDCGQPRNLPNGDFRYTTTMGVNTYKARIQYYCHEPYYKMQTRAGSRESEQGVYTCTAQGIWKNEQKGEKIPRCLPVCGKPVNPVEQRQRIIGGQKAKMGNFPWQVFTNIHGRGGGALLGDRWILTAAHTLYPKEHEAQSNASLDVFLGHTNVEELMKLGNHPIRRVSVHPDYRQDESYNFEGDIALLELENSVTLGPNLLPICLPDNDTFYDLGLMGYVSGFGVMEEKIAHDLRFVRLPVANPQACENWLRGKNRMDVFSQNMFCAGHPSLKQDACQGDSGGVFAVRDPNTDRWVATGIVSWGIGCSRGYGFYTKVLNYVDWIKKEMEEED
As to the kind of experiment: ELISA, target coated at 2.5 µg/mL, biotinylated antibody titrated, streptavidin-HRP, OD450 background subtracted. How it is done: as §1

The target of assay [3] is thrombin (EMD Millipore 605195) (UniProt P00734 328-622). The assay is described as above. How it is done:
as §1

Assay [4] concerns the target factor D (Competech A136) (UniProt P00746 26-253). The assay is described as above. How it is done:
as §1

In assay [5] the target is T3, C2a (prepared from C2) (UniProt P06681 244-752, limits assumed).
T3 construct: domain: C2a
T3 sequence (looked up): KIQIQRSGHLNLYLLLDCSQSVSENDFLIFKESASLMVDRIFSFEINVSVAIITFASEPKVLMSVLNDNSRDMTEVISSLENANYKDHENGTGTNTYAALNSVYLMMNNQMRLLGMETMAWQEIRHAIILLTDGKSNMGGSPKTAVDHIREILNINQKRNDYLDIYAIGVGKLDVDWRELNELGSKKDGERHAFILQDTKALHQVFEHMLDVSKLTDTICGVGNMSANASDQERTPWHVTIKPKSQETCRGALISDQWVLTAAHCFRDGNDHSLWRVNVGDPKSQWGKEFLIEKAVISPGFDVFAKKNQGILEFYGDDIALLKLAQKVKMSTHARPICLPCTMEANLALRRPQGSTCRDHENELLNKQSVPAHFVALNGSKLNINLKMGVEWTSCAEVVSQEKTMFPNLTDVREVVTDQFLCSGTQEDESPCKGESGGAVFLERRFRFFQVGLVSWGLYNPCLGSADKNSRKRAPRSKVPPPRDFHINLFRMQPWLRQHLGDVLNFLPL
The assay is described as above. As to the method:
as §1

Assay [6] has as its target T4, aCls (Comptech A104) (UniProt P09871 16-688).
T4 construct: the active enzyme is a two-chain form of this precursor; also called aC1s
T4 sequence (looked up): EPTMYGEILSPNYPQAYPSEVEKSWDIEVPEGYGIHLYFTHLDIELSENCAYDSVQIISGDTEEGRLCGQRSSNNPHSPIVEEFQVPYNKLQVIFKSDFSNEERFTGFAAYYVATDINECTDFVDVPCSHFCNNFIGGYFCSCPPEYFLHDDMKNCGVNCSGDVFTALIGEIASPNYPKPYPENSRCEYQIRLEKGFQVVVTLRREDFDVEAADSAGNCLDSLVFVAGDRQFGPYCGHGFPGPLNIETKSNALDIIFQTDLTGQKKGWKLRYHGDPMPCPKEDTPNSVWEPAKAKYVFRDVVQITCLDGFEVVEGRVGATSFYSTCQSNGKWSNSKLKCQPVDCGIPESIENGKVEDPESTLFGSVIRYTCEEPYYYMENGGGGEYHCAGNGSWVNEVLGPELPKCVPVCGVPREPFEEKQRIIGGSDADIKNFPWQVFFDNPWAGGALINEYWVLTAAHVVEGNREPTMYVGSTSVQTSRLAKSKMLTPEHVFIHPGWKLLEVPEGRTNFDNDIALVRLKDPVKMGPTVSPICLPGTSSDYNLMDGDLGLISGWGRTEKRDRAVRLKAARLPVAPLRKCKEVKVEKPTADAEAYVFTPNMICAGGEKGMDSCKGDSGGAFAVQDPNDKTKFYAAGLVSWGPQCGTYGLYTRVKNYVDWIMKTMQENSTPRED
The description is as above. How it is done:
as §1

T1 sequence (P00751 260-764 limits assumed): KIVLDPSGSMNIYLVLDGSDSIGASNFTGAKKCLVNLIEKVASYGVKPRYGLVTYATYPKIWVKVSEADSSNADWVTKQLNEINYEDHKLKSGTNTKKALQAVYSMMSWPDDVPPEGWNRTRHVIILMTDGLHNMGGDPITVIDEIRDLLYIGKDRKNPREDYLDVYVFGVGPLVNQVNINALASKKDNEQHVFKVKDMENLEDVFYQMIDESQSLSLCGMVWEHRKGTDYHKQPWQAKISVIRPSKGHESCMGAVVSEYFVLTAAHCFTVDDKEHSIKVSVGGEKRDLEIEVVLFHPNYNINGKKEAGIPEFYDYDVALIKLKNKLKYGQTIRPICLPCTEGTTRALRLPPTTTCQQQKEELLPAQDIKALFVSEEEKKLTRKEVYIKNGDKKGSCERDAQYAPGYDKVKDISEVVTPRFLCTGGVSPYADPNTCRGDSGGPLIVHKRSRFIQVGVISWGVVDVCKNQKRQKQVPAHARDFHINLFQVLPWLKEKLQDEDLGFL
factor D (Competech A136), sequence (P00746 26-253 limits assumed): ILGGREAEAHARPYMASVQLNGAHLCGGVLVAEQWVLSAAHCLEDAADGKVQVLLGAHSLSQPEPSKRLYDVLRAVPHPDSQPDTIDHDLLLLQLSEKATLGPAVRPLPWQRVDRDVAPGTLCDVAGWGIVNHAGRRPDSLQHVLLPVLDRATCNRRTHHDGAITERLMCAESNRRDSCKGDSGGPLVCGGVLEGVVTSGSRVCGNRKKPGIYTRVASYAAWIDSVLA

B1: VH6/Vκ7-IgG4v2 (antibody)
heavy: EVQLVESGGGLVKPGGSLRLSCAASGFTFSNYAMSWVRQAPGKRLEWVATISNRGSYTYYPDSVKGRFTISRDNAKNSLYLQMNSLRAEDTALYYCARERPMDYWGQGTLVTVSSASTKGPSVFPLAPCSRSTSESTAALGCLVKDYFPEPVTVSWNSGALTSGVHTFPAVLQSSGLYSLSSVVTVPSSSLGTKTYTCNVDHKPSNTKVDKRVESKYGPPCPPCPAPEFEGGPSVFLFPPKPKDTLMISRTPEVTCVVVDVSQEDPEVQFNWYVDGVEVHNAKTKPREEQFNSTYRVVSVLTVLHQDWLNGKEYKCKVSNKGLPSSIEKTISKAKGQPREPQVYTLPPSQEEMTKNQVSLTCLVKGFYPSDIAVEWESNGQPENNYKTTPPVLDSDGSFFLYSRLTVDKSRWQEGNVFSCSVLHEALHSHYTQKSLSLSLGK
light: DIQMTQSPSTLSASVGDRVTITCKASQDVGTAVAWYQQKPGKAPKLLIYWASTRHTGVPDRFSGSGSGTDFTLTISSLQAEDFAVYFCHQHSSNPLTFGQGTKLEIKRTVAAPSVFIFPPSDEQLKSGTASVVCLLNNFYPREAKVQWKVDNALQSGNSQESVTEQDSKDSTYSLSSTLTLSKADYEKHKVYACEVTHQGLSSPVTKSFNRGEC
notes: also called VH6/VK7-IgG4v2; VH6/VK7-IgG4v2_HEK
In general, EC50 (read off the curve) refers to the concentration giving half of the maximal effect. High values mean a less potent agent, low ones a more potent agent. B1: in assay [1], the “EC50 (read off the curve)” value is ~0.02 µg/mL. Further, the binding result in assay [2], in assay [3], in assay [4], in assay [5] and in assay [6] was “no binding” throughout.

B2: VH0/Vκ0 (Chimeric) (antibody, V domains shown)
VH: EVQLVESGGALVKPGGSLKLSCAASGFTFSNYAMSWVRQTPEKRLEWVATISNRGSYTYYPDSVKGRFTISRDNAKNTLYLQMSSLRSEDTALYYCARERPMDYWGQGTSVTVSS
VL: DIVMTQSHKFMSTSVGDRVSITCKASQDVGTAVAWYQQKPGQSPKLLIYWASTRHTGVPDRFTGSGSGTDFTLTITNVQSEDLAVYFCHQHSSNPLTFGAGTKLELK
notes: also called chimeric antibody
As for B2, the “EC50 (read off the curve)” value in assay [1] was ~0.01 µg/mL. Besides, the binding result in assay [2], in assay [3], in assay [4], in assay [5] and in assay [6] was “no binding (tested: about 10^5 ng/mL (log 5 on the axis))” throughout.

For the origin of these results see patent US20210332115A1 (Sanofi, published 2021).
